# From the supplement of paper PMC10126150
# ± gives the standard deviation of the averaged measurements.
# Test system: ATP
# Experiment: switch fluorescence ratio, 500 uM ATP over buffer (Cy3 cluster intensity, sum of 5 cycles each) (fold (ratio)); higher = stronger signal-on switching upon ATP binding; sequences stand for … in TCGTCGGCAGCGTCAGATGTGTATAAGAGACAGTTTTTTTTTTTTTTTTTTTTTTTTT…TC
# Details: aptamer strand: ATP DNA aptamer (quencher-CACCTGGGGGAGTATTGCGGAGGAAGG + anchor), 100 nM annealed; ATP concentration: 500 uM
# Procedure, shortened: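 For every switch-domain sequence, the fluorescence ratio is the mean of per-cluster values, each being summed target-cycle Cy3 intensity over summed buffer-cycle Cy3 intensity. Clusters outside 100-1000 RFU were excluded. On a modified Illumina MiSeq flow-cell, the Cy3-labelled switching-strand clusters were annealed to 100 nM quencher-labelled ATP aptamer, imaged in selection buffer and then after 15 min with 500 uM ATP at 22 °C. Five such cycles were run, with NaOH stripping and re-annealing between them.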
# 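Further: ATP exposure 15 min at 22 °C before imaging.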
row,Sequence,switch fluorescence ratio
1,CTGGGCGTGC,0.997 ± 0.03
2,TGGGATGGGC,1.05 ± 0.14
3,TTTTGGAAAA,1.02 ± 0.017
4,TTTTAGGCAC,1.03 ± 0.018
5,TAAGGACGAC,1.02 ± 0.026
6,TGGCCTGGGA,1.026 ± 0.0056
7,CAATACTCAA,2.14 ± 0.023
8,TTTGTAGTAT,1.03 ± 0.1
9,TTGTTAATAG,1.06 ± 0.062
10,GTGGTACTGG,0.9683 ± 0.0066
11,GGGTTTCACG,0.983 ± 0.023
12,ATATGGTCAT,0.9719 ± 0.0021
13,ATAGTCACAT,1.02 ± 0.021
14,GGGCTGTTGC,1.08 ± 0.13
15,AGCGTTGTG,1.01 ± 0.044
16,TACAAGTCGA,1.016 ± 0.0042
17,AAAGGAACTC,0.999 ± 0.092
18,GTGGGAACAG,0.979 ± 0.011
19,ACGCAGGCTT,1.05 ± 0.011
20,TTAGGTTAGG,0.9765 ± 0.0064
21,AGACTAGTCG,0.972 ± 0.047
22,CGGGAAGGGC,1.19 ± 0.32
23,GGGAAGTTTG,1 ± 0.038

row,Sequence,switch fluorescence ratio
1,TTGGTTTCAT,1.009 ± 0.0094
2,CCTCTATGAT,1.42 ± 0.044
3,ACTTATGGCT,1.05 ± 0.022
4,TATATTTTAT,0.982 ± 0.035
5,ACTGGGGGGA,1.02 ± 0.04
6,AAAATCAGGC,0.944 ± 0.085
7,AAAGCTGTAG,1.02 ± 0.038
8,CGGGGGGATG,1.01 ± 0.033
9,GGAGCCCCGA,0.9814 ± 0.0076
10,TGTGGGGTGT,1.039 ± 0.0096
11,TGGGTAAAGA,0.981 ± 0.049
12,GCTGCTTAGC,1.02 ± 0.018
13,TAAGTTGTGT,0.972 ± 0.036
14,GGCTTGGGTT,1.01 ± 0.039
15,CAGGGGCTTA,1 ± 0.038
16,GTCATAACAT,1.018 ± 0.0065
17,TTTTTTCGAT,0.995 ± 0.047
18,GGGAAGACGA,1.01 ± 0.014
19,AAAGGACACA,1.061 ± 0.01
20,GTAACTAGAG,0.997 ± 0.033
21,TATTTGTCAT,1.02 ± 0.013
22,GGGATGGCAG,0.9816 ± 0.0059
23,TAGGAAATCT,1.03 ± 0.017

row,Sequence,switch fluorescence ratio
1,TGAGTGGCTC,0.9793 ± 0.0053
2,TGTGAAGGGC,1.02 ± 0.029
3,CTCCCCGGGT,3 ± 1.1
4,CTTTTTTTTG,0.993 ± 0.017
5,AAAGGGGGAA,0.998 ± 0.026
6,AGAGGAGGCA,0.9727 ± 0.0085
7,GCGACTTGGG,1.04 ± 0.054
8,GTCAATTGCA,0.999 ± 0.026
9,CCAAAGATTG,0.993 ± 0.064
10,ACCGCGTTTT,1.03 ± 0.041
11,TTTTTATTA,1.001 ± 0.0052
12,GATTGGAAAG,1.0069 ± 0.00042
13,GCTTAAACGG,1.02 ± 0.073
14,TGGGGAAAAT,1.033 ± 0.0065
15,TGTGGTGGC,0.995 ± 0.019
16,TCATTCGGGG,0.973 ± 0.016
17,CAGTTTTTAT,1.01 ± 0.026
18,CCCAGGTTAG,2.9 ± 0.2
19,GGTGTATGAA,0.994 ± 0.029
20,GATATGCGTT,0.985 ± 0.031
21,TGGTTACTGT,1.02 ± 0.022
22,TTAGGGGCGT,0.989 ± 0.013
23,GATAAATCGG,0.981 ± 0.024

row,Sequence,switch fluorescence ratio
1,CTGGGTGCAT,1.14 ± 0.032
2,GTGGGTTTGG,0.999 ± 0.049
3,TCAAGTTTG,1.011 ± 0.0069
4,TATATCAGTT,1.007 ± 0.0087
5,GGCACATAAT,1.08 ± 0.087
6,GCAGTGGGTC,0.995 ± 0.0057
7,GGGCGGCGGC,0.988 ± 0.0099
8,GGGCAGGCAC,0.993 ± 0.018
9,GGGGGGGTG,1.04 ± 0.013
10,ACACTGGCCC,0.964 ± 0.038
11,TCGCTTCTCT,1.76 ± 1
12,AGTCTTTTTG,0.999 ± 0.03
13,GGCGGGATCT,1.21 ± 0.26
14,AATGTTCTGG,0.99 ± 0.032
15,GGCAACGCGC,0.997 ± 0.031
16,TACGGAGGGA,1.08 ± 0.029
17,GTGGGCCGAG,1.021 ± 0.0076
18,TGGGGTAAAA,0.99 ± 0.0091
19,ACAGTCTGTT,1.01 ± 0.048
20,CTGGGGGAAG,0.985 ± 0.034
21,AGTAATTTTT,1 ± 0.018
22,GTATTCAAGA,1 ± 0.043
23,TAATGGGTCC,0.99 ± 0.019

row,Sequence,switch fluorescence ratio
1,GATACTGGGG,1.01 ± 0.028
2,TATTATAATA,0.98 ± 0.035
3,GGGGCGTAGG,1 ± 0.033
4,ACTGCCGGTC,1.04 ± 0.041
5,TTCTTTGGGA,1.02 ± 0.028
6,GGTTAAAGAA,1.004 ± 0.0082
7,GGTATGTAGG,0.978 ± 0.012
8,CGCGAATATA,1 ± 0.019
9,GGGAGAACGG,0.977 ± 0.046
10,TTTTTGGGAT,1.01 ± 0.031
11,TTGTTTTCGG,0.961 ± 0.02
12,ATCATTGAGA,0.9972 ± 0.0043
13,AGGGCCGAT,0.955 ± 0.046
14,CGGGAGGGAG,1 ± 0.05
15,CATGCGAATA,1.1 ± 0.033
16,TAGGTTGAGT,0.996 ± 0.061
17,GGTTCTGTGT,0.99 ± 0.012
18,GGGAAATAAA,0.988 ± 0.013
19,GGTATATCTG,1.01 ± 0.039
20,AGATTAAGTA,0.989 ± 0.024
21,TTACAGTGGA,1.01 ± 0.0018
22,ACAGATGGGA,1.04 ± 0.046
23,AGTGGGGCGT,1 ± 0.016

row,Sequence,switch fluorescence ratio
1,AGGGTTAGCT,0.991 ± 0.02
2,GGGGGGTTCC,1.02 ± 0.044
3,AGATGCTTAT,0.979 ± 0.019
4,TTGTGGGGG,1.0016 ± 0.0009
5,CACGAGGAGG,0.9809 ± 0.0055
6,ATCGTTCAAT,0.9983 ± 0.0046
7,GAGGGTGTAA,1.001 ± 0.01
8,TGGCGTTTGG,1 ± 0.015
9,CGATAATGAA,1 ± 0.029
10,ATTGTAAGTG,1.03 ± 0.088
11,GCATTAGGTA,0.984 ± 0.024
12,TGGGAGGGTC,1.12 ± 0.14
13,GAGTACACGT,0.9813 ± 0.0061
14,TAAGTCCTT,1.01 ± 0.048
15,GCGCGGAGGA,1.03 ± 0.029
16,TGTTTGAGAT,1.01 ± 0.015
17,AGGGTCTTAG,1.02 ± 0.049
18,TAACTCACTA,1.15 ± 0.017
19,GTTTTTTTGT,0.966 ± 0.001
20,GGGTGAGGCG,0.981 ± 0.038
21,TTGAGGGGGT,1.05 ± 0.16
22,TATTGAGTAA,1.02 ± 0.02
23,GAATAAGTCC,1.04 ± 0.028

row,Sequence,switch fluorescence ratio
1,TATTTAAGTG,1.039 ± 0.0092
2,CAGTGAATGT,0.976 ± 0.039
3,CCTCAGCAGA,3.75 ± 0.53
4,CACGGGGGAC,1.06 ± 0.021
5,GACGTTAAAC,1.56 ± 0.019
6,ATAACCGCGG,0.994 ± 0.025
7,GTTTTTACCT,1.21 ± 0.19
8,TTCAGTTCGG,0.9942 ± 0.0016
9,AAGGGTAGTT,0.997 ± 0.028
10,GGTATGGCGA,0.939 ± 0.048
11,TGCGGTGATG,0.985 ± 0.016
12,CCTTTGGTTT,0.982 ± 0.013
13,GTTGTTGTCG,0.974 ± 0.1
14,CCGGACCCAA,1.75 ± 0.23
15,ATCTTGGCTG,0.983 ± 0.03
16,TATTAACCTG,1.03 ± 0.022
17,AATCGCACCA,1.11 ± 0.025
18,AGGATATGGC,1.09 ± 0.12
19,ACTAACGGGG,1.35 ± 0.084
